In publication PMC6326811 one finds telomerase activity brought down, relative to FLAG-TCAB1 (fraction of FLAG-TCAB1) data, which are given here for one substance.

The test concerns the target FLAG-HA-tagged full-length wild-type TOE1 (human) (UniProt Q96GM8). The experiment in a line: co-IP; IP-TRAP: lysates of 293T cells transiently expressing FLAG-HA-tagged proteins incubated with anti-FLAG M2 beads at 4°C for 2 h; telomerase in the eluates read by its activity (Q-TRAP).

On to “active telomerase (endogenous telomerase holoenzyme of 293T cells) (from UniProt O14746 1-1132) (complex)”, for which the telomerase activity brought down, relative to FLAG-TCAB1 (fraction of FLAG-TCAB1) was determined as 0.33.
